Test results: patent publication US20190055291A1 (FONDATION THE ARK, published 2019)
Bridge positions count the residues as written; N and C are the ends. Square brackets hold non-standard residues; d marks the D form. R8 = C=CCCCCCC[C@@](C)(N)C(=O)O; S5 = C=CCCC[C@](C)(N)C(=O)O

B1: 3ac (peptide)
peptide: EQSLXFIRXSDXLLHXV
modifications: X504, X508, X511 and X515 are (S)-2-(4-pentenyl)alanine (two staples); N-terminus acetylated; C-terminus amidated

Columns and labels:
[1] = target: RSV fusion glycoprotein F (trimeric HR1 target) on recombinant GFP-expressing RSV virus (strain A2) (RSV (strain A2), UniProt P03420 26-574); assay: cell-based or functional assay
[2] = target: RSV fusion glycoprotein F (trimeric HR1 target) on mCherry-expressing RSV virus (rHRSV-mCherry) (human RSV (rHRSV), strain ); assay: cell-based or functional assay

Binder | EC50, block of RSV-GFP infection of A549 cells (flow cytometry) [1] [µM] | EC50 values [µM], rHRSV-mCherry inhibition assay in HEp-2 cells [2] [µM]
YDPLVFPSDEFDASISQVNEKINQSLAFIRKSDEL [T108] | 20.9 | 
FDASISQVNEKINQSLAFIRKSDELLHNVNAGKST [T118] |  | 6.33
B1 | 15.3 | 
Ac-EKINQSL[R8]FIRKSD[S5]LLHNV-NH2 (staple 8-15) [4e] | > 90 | 
